Test [1] addresses T1, biotinylated Fc domain (UniProt P01857-1 104-330 = IgG part, limits assumed, biotinylated).
T1 construct: domain: Fc domain; Control antigen of the Fab ELISA; also called Fc domain (control)
Kind of test: ELISA, biotinylated Fc domain on streptavidin plate, Fab detected with HRP anti-kappa. As to the method:
(§1) The 96-well master plate of monoclonal preparations contained different concentrations of purified anti-KAAG1 Fabs in each well. A second stock master plate was prepared by diluting the Fabs to a final concentration of 10 μg/ml from which all subsequent dilutions were performed for ELISA measurements. To carry out the binding of Fc-KAAG1 to the monoclonal preparations, the Fc-KAAG1 was biotinylated with NHS-biotin (Pierce, Rockford, Ill.) and 10 ng/well was coated in a streptavidin 96-well plate. One nanogram of each Fab monoclonal preparation was added to each well and incubated at room temperature for 30 minutes. Bound antibody was detected with HRP-conjugated mouse anti-kappa light chain antibody in the presence of TMB liquid substrate (Sigma-Aldrich Canada Ltd., Oakville, ON) and readings were conducted at 450 nm in microtiter plate reader.
For orientation: ELISA stands for enzyme-linked immunosorbent assay.

For test [2], the target named is T2, recombinant Fc-KAAG1 fusion protein (full-length KAAG1) (human, UniProt Q9UBP8 1-84, biotinylated with NHS-biotin (sites not given)).
T2 construct: also called recombinant human KAAG1; not shown: human Fc domain encoded by expression plasmid pYD5; vector-encoded residues between the Fc and the BamHI cloning site of pYD5
T2 sequence: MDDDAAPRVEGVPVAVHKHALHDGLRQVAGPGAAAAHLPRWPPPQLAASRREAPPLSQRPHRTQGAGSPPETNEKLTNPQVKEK
Kind of test: ELISA.

Test [3] has as its target T3, Fc-fused truncated mutant of KAAG1 spanning amino acids 1-35 (human).
T3 construct: also called truncated mutant of KAAG1 1-35; first 35 amino acids of KAAG1; not shown: human Fc domain encoded by expression plasmid pYD5; vector-encoded residues between the Fc and the BamHI cloning site of pYD5
T3 chain: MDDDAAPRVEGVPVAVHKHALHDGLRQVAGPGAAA
In words: ELISA.

For test [4], the target named is T2, recombinant Fc-KAAG1 fusion protein …. In words: ELISA. As to the method: as §1
This is another data set of the same source.

In test [5] the target is T4, KAAG1 (Kidney associated antigen 1), endogenous, on cancer cells and in tumour tissue (human, UniProt Q9UBP8 1-84).
T4 construct: also called KAAG1 antigen
T4 sequence: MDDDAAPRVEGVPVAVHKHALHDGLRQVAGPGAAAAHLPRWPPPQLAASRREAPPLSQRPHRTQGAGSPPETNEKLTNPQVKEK
Kind of test: cell-based ELISA on fixed, non-permeabilised OV-90 cells. As to the method:
KAAG1 is expressed on the surface of ovarian cancer cells. […] Following extensive washing of the cells, bound antibody was detected with HRP-conjugated anti-human IgG as a secondary antibody in a modified cell-based ELISA (see FIG. 16A). […] Additionally, the 3D3 antibody produced the strongest signal implying that the epitope targeted by this antibody was the most accessible in this assay. […] A second approach used was flow cytometry. In this case, a mouse 3D3 anti-KAAG1 antibody was incubated with SKOV-3 ovarian cancer cells at saturating conditions and following extensive washing, the bound 3D3 anti-KAAG1 antibody was detected with anti-mouse IgG conjugated to FITC in a flow cytometer.

In test [6] the target is T2, recombinant Fc-KAAG1 fusion protein …. Kind of test: ELISA on Fc-KAAG1. The protocol: as §1
Expression of human IgG1s in 293E cells—The expression vectors prepared above that encoded the light and heavy chain immunoglobulins were expressed in 293E cells using the transient transfection system (Durocher et al., 2002). The methods used for co-transfecting the light and heavy chain expression vectors were described in Example 3. […] The ability of the chimeric anti-KAAG1 monoclonal antibodies to bind to recombinant Fc-KAAG1 was measured in the ELISA and compared with the original mouse Fabs. The method was described in Example 3. […]

Like-named read-outs stand apart in the source and are kept apart here.

By EC50 (read off the curve) is commonly meant the midpoint of the concentration-response curve.

B1: Fab of well C2 (Omniclonal AL0003Z1 plate) (Fab, V domains shown)
VH: DVQLQESGPDLVKPSQSLSLTCTVTGFSITSGYGWHWIRQFPGNKLEWMGYISFNGDSNYNPSLKSRISITRDTSKNQFFLQLNSVTSEDTATYYCASSYDGLFAYWGQGPLVTVSA
VL: DIQMTQSPSSMYASLGERVTLTCKASQDIHNYLNWFQQKPGKSPKTLIHRANRLVAGVPSRFSGSGSGQDYSLTISSLEYEDLGIYYCLQYDAFPLTFGAGTKLELK
Turning to B1, the binding result in test [1] is reported as “no binding”. Also, the figures for the OD450 in test [2], in test [3] and in test [4] were 0.32, 1.97 and 0.32, respectively.

B2: 3C4 mouse anti-KAAG1 Fab (Fab, V domains shown)
VH: EVQLQESGPDLVKPSQSLSLTCTVTGFSITSGYGWHWIRQFPGNKLEWMGYINYDGHNDYNPSLKSRISITQDTSKNQFFLQLNSVTTEDTATYYCASSYDGLFAYWGQGTLVTVSA
VL: DIVMSQSPSSMYASLGERVTITCKASQDIHNFLNWFQQKPGKSPKTLIFRANRLVDGVPSRFSGSGSGQDYSLTISSLEFEDLGIYSCLQYDEIPLTFGAGTKLELR
notes: Recombinant mouse Fab prepared from E. coli; also called 3C4 Fab; well C4
Turning to B2, the binding result in test [1] was “no binding”. In addition, the figures for the OD450 in test [2], in test [3] and in test [4] were 0.25, 1.93 and 0.25, respectively.

B3: Fab of well D1 (Omniclonal AL0003Z1 plate) (Fab, V domains shown)
VH: EVQLQESGPDLVKPSQSLSLTCTVTGFSITSGYGWHWIRQFPGDKLEWMGYISFNGDYNYNPSLKSRISITRDTSKNQFFLQLSSVTTEDTATYYCASSYDGLFAYWGQGTLVTVSA
VL: DIKMTQSPSSMYASLGERVTITCKASQDIHTYLNWFQQKPGKSPETLIYRANRLVDGVPSRFSGSGSGQDYSLTISSLEYEDMGIYYCLQYDEFPLTFGAGTKLELK
Take B3: the binding result in test [1] is given as “no binding”. In addition, the OD450 was found to be 0.15 in test [2], 1.21 in test [3] and 0.15 in test [4].

B4: 3C4 mouse-human chimeric IgG1 anti-KAAG1 monoclonal antibody (antibody, V domains shown)
VH: EVQLQESGPDLVKPSQSLSLTCTVTGFSITSGYGWHWIRQFPGNKLEWMGYINYDGHNDYNPSLKSRISITQDTSKNQFFLQLNSVTTEDTATYYCASSYDGLFAYWGQGTLVTVSA
VL: DIVMSQSPSSMYASLGERVTITCKASQDIHNFLNWFQQKPGKSPKTLIFRANRLVDGVPSRFSGSGSGQDYSLTISSLEFEDLGIYSCLQYDEIPLTFGAGTKLELRA
notes: Mouse variable regions on human kappa and human IgG1 constant regions, expressed in 293E cells; also called chimeric 3C4
Regarding B4, the “EC50 (read off the curve)” value in test [5] was around 0.6 µg/mL.

B5: G8 (Fab, V domains shown)
VH: QVQLKQSGAELVRPGASVTLSCKASGYTFTDYEVHWVKQTPVHGLEWIGVIDPATGDTAYNQKFKGKATLTADKSSSTAYMEVSSLTSEDSAVYYCMGYSDYWGQGTTLTVSS
VL: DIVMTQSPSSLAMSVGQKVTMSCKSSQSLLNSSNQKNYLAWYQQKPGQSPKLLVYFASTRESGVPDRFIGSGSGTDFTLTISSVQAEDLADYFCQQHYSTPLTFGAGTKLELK
notes: also called Fab of well G8
In the case of B5, the OD450 in test [2] and in test [4] was 1.72 each time.

B6: G12 (Fab, V domains shown)
VH: EVQLQQSVAELVRPGASVTVSCKASGYIFTDYEIHWVKQTPAHGLEWIGVIDPETGNTAFNQKFKGKATLTADISSSTAYMELSSLTSEDSAVYYCMGYSDYWGQGTTLTVSS
VL: DIVMTQSPKFMSTSVGDRVSITCKASQDVGTAVAWYQQKPGQSPELLIYWTSTRHTGVPDRFSGSGSGTDFTLTISSVQAEDLADYFCQQHYSIPLTFGAGTKLELR
notes: also called Fab of well G12
As for B6, the OD450 in test [2] and in test [4] was 1.38 throughout.

B7: A9 (Fab, V domains shown)
VH: QVQVQQPGAELVRPGASVTLSCKASGYIFTDYEVHWVRQRPVHGLEWIGVIDPETGDTAYNQKFKGKATLTADKSSSTAYMELSSLTAEDSAVYYCIGYADYWGQGTTLTVSS
VL: DIVMTQSPSSLAMSLGQKVTMSCKSSQSLLNSNNQLNYLAWYQQKPGQSPKLLVYFASTRKSGVPDRFIGSGSGTDFTLTITSVQAEDLADYFCQQHFNTPLTFGAGTKLELK
notes: also called Fab of well A9
In the case of B7, the values for the OD450 in test [2], in test [3] and in test [4] were 1.53, 0.1 and 1.53, respectively.

B8: C3 (Fab, V domains shown)
VH: EVQLQQSVAEVVRPGASVTLSCKASGYTFTDYEIHWVKQTPVHGLEWIGVIDPETGVTAYNQRFRDKATLTTDKSSSTAYMELSSLTSEDSAVYFCMGYSDYWGQGTTLTVSS
VL: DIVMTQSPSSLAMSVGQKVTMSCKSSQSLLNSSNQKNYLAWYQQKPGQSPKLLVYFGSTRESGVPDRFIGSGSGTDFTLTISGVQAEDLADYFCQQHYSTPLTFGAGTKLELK
notes: also called Fab of well C3
Regarding B8, the OD450 in test [2] and in test [4] was 1.04 each time.

B9: 3D3 mouse anti-KAAG1 Fab (Fab, V domains shown)
VH: EVQLQQSVAELVRPGASVTLSCKASGYIFTDYEIHWVKQTPVHGLEWIGVIDPETGNTAFNQKFKGKATLTADISSSTAYMELSSLTSEDSAVYYCMGYSDYWGQGTTLTVSS
VL: DIVMTQSPSSLAVSIGQKVTMNCKSSQSLLNSNFQKNFLAWYQQKPGQSPKLLIYFASTRESSIPDRFIGSGSGTDFTLTISSVQAEDLADYFCQQHYSTPLTFGAGTKLELK
notes: Recombinant mouse Fab prepared from E. coli, from Omniclonal AL0003Z1; also called 3D3 Fab
Regarding B9, the binding result in test [1] was “no binding”. For the same molecule, the OD450 in test [2] and in test [4] was 1.21 throughout. Besides, the “EC50 (read off the curve)” value in test [6] is around 0.5 µg/mL.

B10: Fab of well E10 (Omniclonal AL0003Z1 plate) (Fab, V domains shown)
VH: EVQLQQSGPELVKPGASVKISCKASGDTFTDYYMNWVKQSHGKSLEWIGDINPNYGGITYNQKFKGKATLTVDTSSSTAYMELRGLTSEDSAVYYCQAYYRNSDYWGQGTTLTVSS
VL: DIVMTQAAPSVPVTPGESVSISCRSSKSLLHSNGNTYLYWFLQRPGQSPQLLIYRMSNLASGVPDRFSGSGSGTAFTLRISRVEAEDVGVYYCMQHLEYPYTFGGGTKLEIK
As for B10, the OD450 in test [2] and in test [4] was 0.02 in each case.

B11: 3G10 mouse anti-KAAG1 Fab (Fab, V domains shown)
VH: EIQLQQSGPELVKPGASVKISCKASGYTFTDNYMNWVKQSHGKSLEWIGDINPYYGTTTYNQKFKGKATLTVDKSSRTAYMELRGLTSEDSAVYYCARDDWFDYWGQGTLVTVSA
VL: DVLMTQTPRSLSVSLGDQASISCRSSQSLLHSNGNTYLEWYLQKPGQPPKVLIYKVSNRFSGVPDRFSGSGSGTDFTLKISGVEAEDLGVYYCFQGSHVPLTFGAGTKLELK
notes: Recombinant mouse Fab prepared from E. coli; also called 3G10 Fab; well G10
On to B11, for which, in test [1], the binding result is “no binding”. In addition, the OD450 in test [2] and in test [4] was 2.78 throughout.
